Data as given in the supplement of paper PMC10724198.
± gives the standard deviation of the averaged measurements.

Tested on: Saccharomyces cerevisiae
Assay: protein stability index of tFT-peptide fusion (C-terminal peptide) (PSI (0-1 scale)); higher = more stable (slower turnover)
Settings: temperature: 30 C
Procedure: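 MPS profiling in S. cerevisiae of the yeast C-terminome library: the last 12 aa of each annotated ORF are fused to the C-terminus of a sfGFP-mCherry timer, after a GGGS linker. Cells are FACS-sorted into 8 mCherry/sfGFP bins and deep-sequenced. PSI runs from 0 (unstable) to 1 (stable); wild type and das1Δ backgrounds, two technical replicates each.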

[1] = genetic background: das1 deletion

Sequence	protein stability index [1]	protein stability index (genetic background: wild type)
TKWWLHYYRKLR [SBE2 C-terminal 12 aa]	0.7418 ± 0.005	0.701 ± 0.023
VAASKASKKSKI [NSA1 C-terminal 12 aa]	0.683 ± 0.035	0.677 ± 0.085
KWLWRELEESSL [OCA5 C-terminal 12 aa]	0.745 ± 0.018	0.7234 ± 0.0014
AESPEEADVEMS [PUP2 C-terminal 12 aa]	0.6788 ± 0.0056	0.707 ± 0.052
SHEQKFENVQKE [STF2 C-terminal 12 aa]	0.711 ± 0.017	0.705 ± 0.012
RQRRLQAAGRWF [PCP1 C-terminal 12 aa]	0.716 ± 0.014	0.6854 ± 0.0044
QKIDNALKMTGR [YDR102C C-terminal 12 aa]	0.6896 ± 0.0062	0.705 ± 0.0095
KKKQNDGKSLRS [DBP8 C-terminal 12 aa]	0.687 ± 0.013	0.732 ± 0.0081
RGDDGESYAYLA [CDC53 C-terminal 12 aa]	0.69274 ± 0.00042	0.691 ± 0.0089
TYRLLLRLHAQD [FAR7 C-terminal 12 aa]	0.68 ± 0.035	0.641 ± 0.019
LAITIAALCASL [EXG2 C-terminal 12 aa]	0.55 ± 0.0069	0.572 ± 0.018
DSERKVLSEALL [KAP114 C-terminal 12 aa]	0.676 ± 0.013	0.6846 ± 0.0027
SPYDWFRNTETP [DER1 C-terminal 12 aa]	0.726 ± 0.035	0.737 ± 0.0089
FKIFAKLFCTRK [HLR1 C-terminal 12 aa]	0.71093 ± 0.00038	0.6936 ± 0.0041
NGNNVASLNTKK [TAF12 C-terminal 12 aa]	0.6865 ± 0.0016	0.664 ± 0.011
FIAQAEAEAETD [GRS1 C-terminal 12 aa]	0.688 ± 0.014	0.669 ± 0.017
GLRVANPDSDPE [YDR239C C-terminal 12 aa]	0.7 ± 0.0077	0.721 ± 0.081

Sequence	protein stability index [1]	protein stability index (genetic background: wild type)
DWEAIDAQTIKL [FAT1 C-terminal 12 aa]	0.746 ± 0.0075	0.768 ± 0.021
DQFQLITQGIYS [PIK1 C-terminal 12 aa]	0.722 ± 0.034	0.717 ± 0.099
VNNFKMFSNSSV [YIL115W-A C-terminal 12 aa]	0.704 ± 0.027	0.765 ± 0.045
CDIQEEQVDITA [PUP1 C-terminal 12 aa]	0.695 ± 0.0088	0.682 ± 0.015
HLEKKEPKSRKK [YDL129W C-terminal 12 aa]	0.724 ± 0.013	0.689 ± 0.03
DEDDDEDVTDQE [DLS1 C-terminal 12 aa]	0.6663 ± 0.004	0.677 ± 0.013
VKEIPEYSHLID [GCN5 C-terminal 12 aa]	0.718 ± 0.0055	0.697 ± 0.0012
IFCFDNYRSCYC [YKL031W C-terminal 12 aa]	0.7071 ± 0.0034	0.678 ± 0.038
RHSMSEEELEMY [KTR4 C-terminal 12 aa]	0.689 ± 0.034	0.685 ± 0.044
YLKNYFKTKHII [ERV25 C-terminal 12 aa]	0.702 ± 0.018	0.185 ± 0.0056
KWGLSKKDGRQA [SLY41 C-terminal 12 aa]	0.699 ± 0.034	0.7036 ± 0.0043
VYEVVCDSVRNW [MRX21 C-terminal 12 aa]	0.692 ± 0.023	0.717 ± 0.0011
SGPVEELVSPSK [IRC8 C-terminal 12 aa]	0.7034 ± 0.0033	0.685 ± 0.032
ACFTRLPTPAIL [TRM8 C-terminal 12 aa]	0.68 ± 0.0089	0.6593 ± 0.0055
CWENVRKTRAAK [PSO2 C-terminal 12 aa]	0.692 ± 0.0083	0.6966 ± 0.005
FFFPLFLFLYHL [YHR180W-A C-terminal 12 aa]	0.436 ± 0.0054	0.306 ± 0.0032
RTAYILMYQKRN [UBP3 C-terminal 12 aa]	0.782 ± 0.014	0.1351 ± 0.00015
